From US20250076311A1 (Chugai, published 2025)
Substitutions are numbered along the chain they refer to. Names may count otherwise.

T1: soluble mouse FcγRII, His-tagged (mouse, UniProt P08101 30-210, limits assumed)
T1 construct: Captured on the chip through an anti-His antibody
T1 sequence (looked up): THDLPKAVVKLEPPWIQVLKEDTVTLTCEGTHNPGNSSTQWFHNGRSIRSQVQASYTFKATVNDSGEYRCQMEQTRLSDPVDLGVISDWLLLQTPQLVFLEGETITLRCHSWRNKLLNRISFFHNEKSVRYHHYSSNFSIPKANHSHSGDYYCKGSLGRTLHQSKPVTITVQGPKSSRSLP

T2: human FcγRIIb constitutively expressed on MDCK cells (human, UniProt P31994 43-310)
T2 sequence (looked up): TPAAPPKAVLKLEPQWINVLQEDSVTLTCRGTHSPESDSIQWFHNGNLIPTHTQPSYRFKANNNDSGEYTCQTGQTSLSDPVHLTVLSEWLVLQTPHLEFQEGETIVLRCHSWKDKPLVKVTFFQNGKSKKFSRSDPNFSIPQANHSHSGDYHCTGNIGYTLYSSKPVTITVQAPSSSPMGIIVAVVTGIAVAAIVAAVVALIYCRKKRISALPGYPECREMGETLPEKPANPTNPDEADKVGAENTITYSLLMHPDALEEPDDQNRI

T3: human FcγRIIaR extracellular domain, His-tagged (human, UniProt P12318 34-217)
T3 construct: also called human FcgRIIaR; FcγRIIa type R
T3 chain: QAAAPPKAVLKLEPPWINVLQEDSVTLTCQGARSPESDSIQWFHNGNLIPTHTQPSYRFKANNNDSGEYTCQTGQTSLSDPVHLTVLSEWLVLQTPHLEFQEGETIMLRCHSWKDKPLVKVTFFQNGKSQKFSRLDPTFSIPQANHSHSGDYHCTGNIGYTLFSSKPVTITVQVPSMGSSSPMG

T4: human FcγRIIaH extracellular domain, His-tagged (human, UniProt P12318 34-217)
T4 construct: also called human FcgRIIaH; FcγRIIa type H
T4 sequence: T3 chain with R134H

B1: M103205H795-P1552m/M103202L889-SK1 (antibody, human IgG1, kappa, name in EU numbering)
heavy: QVTLKESGPVLVKPTETLTLTCTVSGIDLSHDDISWVRQAPGKGLEWVGIISYAGSTYYASWAKGRLTISKDTSKNQVVLTMTNMDPVDTATYYCARGVPAYSHGGDLWGQGTLVTVSSASTKGPSVFPLAPSSKSTSGGTAALGCLVKDYFPEPVTVSWNSGALTSGVHTFPAVLQSSGLYSLSSVVTVPSSSLGTQTYICNVNHKPSNTKVDKKVEPKSCDKTHTCPPCPAPELLGGPSVFLFPPKPKDTLMISRTPEVTCVVVDVSHEDPEVKFNWYVDGVEVHNAKTKPREEQYNSTYRVVSVLTVLHQDWLNGKEYKCKVSNKALPAPIEKTISKAKGQPREPQVYTLPPSREEMTKNQVSLTCLVKGFYPSDIAVEWESNRQPENNYKTTPPVLDSRGSFFLYSKLTVKKSRWQQGNVFSCSVMHEALHNHYTQKSLSLSP
light: DIVMTQSPATLSLSPGERATLSCTSSQSVYHANWLSWFQQKPGQPPKLLIYWASTLAYGVPSRFSGSGSGTDFTLTISSLQPEDAATYYCAGGYGGGRYAFGQGTKVEIKRTVAAPSVFIFPPSDEQLKSGTASVVCLLNNFYPREAKVQWKVDNALQSGNSQESVTEQDSKDSTYSLSSTLTLSKADYEKHKVYACEVTHQGLSSPVTKSFNRGEC
notes: copies: 2 + 2
B2: MS1032LO06-P1378m (antibody, human IgG1, kappa, name in EU numbering)
heavy: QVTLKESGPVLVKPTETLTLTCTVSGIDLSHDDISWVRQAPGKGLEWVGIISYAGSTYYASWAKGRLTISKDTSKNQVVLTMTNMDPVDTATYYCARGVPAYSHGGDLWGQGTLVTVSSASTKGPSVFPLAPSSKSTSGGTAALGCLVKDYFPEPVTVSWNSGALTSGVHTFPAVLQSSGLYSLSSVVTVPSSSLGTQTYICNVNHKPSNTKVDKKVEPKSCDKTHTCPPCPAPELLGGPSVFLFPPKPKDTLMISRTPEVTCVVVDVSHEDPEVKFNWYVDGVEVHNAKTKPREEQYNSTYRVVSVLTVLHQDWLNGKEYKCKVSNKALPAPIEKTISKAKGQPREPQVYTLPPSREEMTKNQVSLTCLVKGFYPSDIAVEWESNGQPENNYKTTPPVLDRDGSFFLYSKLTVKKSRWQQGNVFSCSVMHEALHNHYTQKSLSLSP
light: B1 light
notes: also called M103205H795-P1378m; copies: 2 + 2
B3: MS1032LO06-P1383m (antibody, human IgG1, kappa, name in EU numbering)
heavy: B1 heavy with Q313R, R387G, S402R, R403D
light: B1 light
notes: also called M103205H795-P1383m; copies: 2 + 2
B4: MS1032LO06-P1499m (antibody, human IgG1, kappa, name in EU numbering)
heavy: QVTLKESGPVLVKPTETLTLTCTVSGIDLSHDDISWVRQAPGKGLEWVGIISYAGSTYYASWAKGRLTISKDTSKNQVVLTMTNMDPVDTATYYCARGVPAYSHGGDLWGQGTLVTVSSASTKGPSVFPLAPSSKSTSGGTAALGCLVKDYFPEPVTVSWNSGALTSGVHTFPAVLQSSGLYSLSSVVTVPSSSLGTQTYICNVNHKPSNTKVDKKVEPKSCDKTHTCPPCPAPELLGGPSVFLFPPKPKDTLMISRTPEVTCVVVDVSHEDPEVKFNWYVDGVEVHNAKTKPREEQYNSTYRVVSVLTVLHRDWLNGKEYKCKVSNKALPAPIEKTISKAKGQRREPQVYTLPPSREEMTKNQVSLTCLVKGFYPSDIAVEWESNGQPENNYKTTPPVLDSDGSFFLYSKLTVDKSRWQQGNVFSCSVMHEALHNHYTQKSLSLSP
light: B1 light
notes: also called M103205H795-P1499m
B5: M103205H795-P1553m/M103202L889-SK1 (antibody, human IgG1, kappa, name in EU numbering)
heavy: B1 heavy with R403D, G404R
light: B1 light
notes: copies: 2 + 2
B6: M103205H795-P1555m/M103202L889-SK1 (antibody, human IgG1, kappa, name in EU numbering)
heavy: B1 heavy with R387G, E390R, R403D, G404R
light: B1 light
notes: copies: 2 + 2
B7: M103205H795-SG141/M103202L889-SK1 (antibody, human IgG1, kappa, name in EU numbering)
heavy: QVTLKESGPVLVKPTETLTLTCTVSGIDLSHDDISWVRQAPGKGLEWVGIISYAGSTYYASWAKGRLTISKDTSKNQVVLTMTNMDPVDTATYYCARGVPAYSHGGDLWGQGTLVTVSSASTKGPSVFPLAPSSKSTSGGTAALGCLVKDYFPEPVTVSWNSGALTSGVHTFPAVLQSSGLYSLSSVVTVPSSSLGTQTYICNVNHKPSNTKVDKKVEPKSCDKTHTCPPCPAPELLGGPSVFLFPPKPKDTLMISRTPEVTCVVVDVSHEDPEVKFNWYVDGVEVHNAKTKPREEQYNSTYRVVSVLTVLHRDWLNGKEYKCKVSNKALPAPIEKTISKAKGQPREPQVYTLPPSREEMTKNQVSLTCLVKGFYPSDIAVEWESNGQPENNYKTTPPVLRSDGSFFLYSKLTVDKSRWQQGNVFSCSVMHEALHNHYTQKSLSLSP
light: B1 light
notes: copies: 2 + 2
B8: MS_M103205H795-SG1/M103202L889-SK1 (antibody, human IgG1, kappa)
heavy: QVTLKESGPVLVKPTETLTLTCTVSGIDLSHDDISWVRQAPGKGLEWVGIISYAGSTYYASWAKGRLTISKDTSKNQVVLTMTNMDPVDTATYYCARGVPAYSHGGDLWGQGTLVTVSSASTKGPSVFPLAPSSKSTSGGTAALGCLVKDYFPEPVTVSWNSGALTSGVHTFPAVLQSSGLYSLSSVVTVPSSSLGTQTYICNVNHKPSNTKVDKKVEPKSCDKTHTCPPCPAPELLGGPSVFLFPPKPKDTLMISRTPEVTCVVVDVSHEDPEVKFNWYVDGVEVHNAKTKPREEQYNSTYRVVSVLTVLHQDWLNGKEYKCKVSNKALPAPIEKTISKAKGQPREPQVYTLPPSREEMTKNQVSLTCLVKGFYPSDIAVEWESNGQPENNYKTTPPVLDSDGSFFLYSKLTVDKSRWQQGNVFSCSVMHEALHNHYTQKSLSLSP
light: B1 light
notes: parent antibody of the Fc variants; human heavy chain constant region SG1; also called MS1032LO06-SG1
B9: M103205H795-MY350/M103202L889-SK1 (antibody, human IgG1, kappa, name in EU numbering)
heavy: B1 heavy with L237W, G238N, H270E, A332K, R387G, P398M, R403D, K415D
light: B1 light
notes: Fc variant of MS1032LO06-SG1; positions in EU numbering
B10: M103205H795-MY518/M103202L889-SK1 (antibody)
heavy: B1 heavy with L237W, G238N, H270D, Q297L, K328T, A332K, R387G, R403D, K415D
light: B1 light
notes: Fc variant of MS1032LO06-SG1; EU numbering
B11: GpH7-B3 A327N / GpL16-k0 (antibody, human IgG1, kappa)
heavy: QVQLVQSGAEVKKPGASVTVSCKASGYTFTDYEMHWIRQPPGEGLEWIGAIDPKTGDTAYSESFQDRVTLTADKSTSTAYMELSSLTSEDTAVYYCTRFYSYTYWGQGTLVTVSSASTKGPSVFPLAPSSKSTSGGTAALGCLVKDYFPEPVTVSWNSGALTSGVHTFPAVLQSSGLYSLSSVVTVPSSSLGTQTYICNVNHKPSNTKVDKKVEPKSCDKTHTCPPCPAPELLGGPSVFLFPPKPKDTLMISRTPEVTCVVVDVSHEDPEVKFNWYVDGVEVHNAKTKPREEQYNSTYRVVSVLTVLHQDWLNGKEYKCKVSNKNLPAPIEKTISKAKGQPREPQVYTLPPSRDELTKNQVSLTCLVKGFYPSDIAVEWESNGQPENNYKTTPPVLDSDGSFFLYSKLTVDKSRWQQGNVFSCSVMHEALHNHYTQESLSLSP
light: DIVMTQSPLSLPVTPGEPASISCQASESLVHSNRNTYLHWYLQKPGQSPQLLIYKVSNRFSGVPDRFSGSGSGTDFTLKISRVEAEDVGVYYCSQNTHVPPTFGQGTKVEIERTVAAPSVFIFPPSDEQLKSGTASVVCLLNNFYPREAKVQWKVDNALQSGNSQESVTEQDSKDSTYSLSSTLTLSKADYEKHKVYACEVTHQGLSSPVTKSFNRGEC
notes: also called B3 variant A327N
B12: GpH7-B3 A330K / GpL16-k0 (antibody, human IgG1, kappa)
heavy: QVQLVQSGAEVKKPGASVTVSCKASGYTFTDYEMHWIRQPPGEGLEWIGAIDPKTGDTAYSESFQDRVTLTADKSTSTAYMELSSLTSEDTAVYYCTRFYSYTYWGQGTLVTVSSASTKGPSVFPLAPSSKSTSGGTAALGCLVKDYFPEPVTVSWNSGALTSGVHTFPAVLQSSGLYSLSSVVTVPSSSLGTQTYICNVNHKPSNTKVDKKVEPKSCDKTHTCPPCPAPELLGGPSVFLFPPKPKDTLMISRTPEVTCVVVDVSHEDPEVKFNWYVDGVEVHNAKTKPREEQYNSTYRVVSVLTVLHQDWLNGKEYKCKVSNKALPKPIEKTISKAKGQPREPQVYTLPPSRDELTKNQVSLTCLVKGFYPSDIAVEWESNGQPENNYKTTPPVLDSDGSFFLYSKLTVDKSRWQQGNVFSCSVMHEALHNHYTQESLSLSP
light: B11 light
notes: also called B3 variant A330K
B13: M103205H795-MY206/M103202L889-SK1 (antibody, human IgG1, kappa, name in EU numbering)
heavy: B1 heavy with G238N, S241V, H270D, Q297L, A332K, R387G, R403D, K415D
light: B1 light
notes: substitutions in EU numbering, introduced into M103205H795-SG1
B14: M103205H795-MY174/M103202L889-SK1 (antibody, human IgG1, kappa, name in EU numbering)
heavy: B1 heavy with G238N, H270E, R387G, P398I, R403D, K415D
light: B1 light
notes: EU numbering
B15: M103205H795-MY199/M103202L889-SK1 (antibody, human IgG1, kappa, name in EU numbering)
heavy: B1 heavy with G238N, H270E, A332K, R387G, R403D, K415D
light: B1 light
notes: as for B13
B16: M103205H795-MY518/M103202L889-SK1 (antibody)
heavy: B1 heavy with L237W, G238N, H270D, Q297L, K328T, A332K, R387G, R403D, K415D
light: B1 light

These binders were tested against T1, soluble mouse FcγRII, His-tagged (assay: SPR, mouse FcγRII captured via His-tag, antigen-antibody complex injected, pH 7.4, 25 C).
Outline: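 Biacore T200; His-tagged soluble FcγRII captured on an anti-His antibody chip, then antibody–antigen complexes injected. Running buffer 20 mM ACES, 150 mM NaCl, 1.2 mM CaCl₂, 0.05% Tween 20, pH 7.4; regeneration with 10 mM glycine-HCl pH 1.5; all at 25° C.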
In the case of B1, the “biacore IC binding (relative, SG1 = 1.00)” value is reported as 2.19 relative to SG1.
B2 was tested, and the “biacore IC binding (relative, SG1 = 1.00)” value was 1.23 relative to SG1.
In the case of B3, the “biacore IC binding (relative, SG1 = 1.00)” value is reported as 1.41 relative to SG1.
In the case of B4, the “biacore IC binding (relative, SG1 = 1.00)” value is reported as 1.98 relative to SG1.
With B5 the “biacore IC binding (relative, SG1 = 1.00)” value was 1.47 relative to SG1.
B6 was tested, and the “biacore IC binding (relative, SG1 = 1.00)” value was 2.01 relative to SG1.
B7 was tested, and the “biacore IC binding (relative, SG1 = 1.00)” value was 1.64 relative to SG1.

What follows are binders tested against T2, human FcγRIIb constitutively expressed … (assay: cell-based or functional assay).
In the case of B1, the “celluar uptake (labelled human latent myostatin taken up as antigen-antibody complex)” value (“celluar uptake” for short) is reported as 4.44 relative to SG1 = 1.00.
In the case of B2, the “celluar uptake” value is reported as 3.86 relative to SG1 = 1.00.
B3 was tested, and the “celluar uptake” value was 5.68 relative to SG1 = 1.00.
With B4 the “celluar uptake” value was 3.61 relative to SG1 = 1.00.
With B5 the “celluar uptake” value was 2.86 relative to SG1 = 1.00.
For B6, the “celluar uptake” value was 3.71 relative to SG1 = 1.00.
B7 was tested, and the “celluar uptake” value was 4.42 relative to SG1 = 1.00.

Each binder was assayed against T5, cynomolgus monkey FcγRIIIaS extracellular domain with C-terminal His-tag (cynomolgus monkey, UniProt A3RFZ7 21-206 (rhesus entry)) (assay: SPR (BIACORE), antibody captured, FcgR analyte).
T5 construct: also called cyno FcgRIIIaS; cynoFcγRIIIaS; not shown: His-tag added to the C-terminus
Method: (§1) The kinetic analysis of interactions between these antibodies and FcγR was carried out using BIACORE® T200 or BIACORE® 4000 (GE Healthcare). HBS-EP+ (GE Healthcare) was used as the running buffer, and the measurement temperature was set to 25° C. […] After the measurement, the antibody captured on the chip was washed off by allowing reaction with 10 mM glycine-HCl, pH1.5 and 25 mM NaOH so that the chip was regenerated and used repeatedly. The sensorgrams obtained as measurement results were analyzed by the 1:1 Langmuir binding model using the BIACORE® Evaluation Software to calculate the binding rate constant ka (L/mol/s) and dissociation rate constant kd (1/s), and the dissociation constant KD (mol/L) was calculated from these values. […] Regarding such interactions, KD values were calculated using the following 1:1 binding model described in BIACORE® T100 Software Handbook BR1006-48 Edition AE.
Target sequence in this assay (A3RFZ7 21-206): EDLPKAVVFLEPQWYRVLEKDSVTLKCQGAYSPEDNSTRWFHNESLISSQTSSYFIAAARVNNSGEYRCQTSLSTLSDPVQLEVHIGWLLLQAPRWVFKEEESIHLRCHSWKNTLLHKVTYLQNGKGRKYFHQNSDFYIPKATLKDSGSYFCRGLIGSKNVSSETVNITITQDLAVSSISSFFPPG
In the case of B8, the Kd is reported as 0.56 µM.
Work on B9 yielded a Kd of 6.6 µM.
With B10 the Kd was 4.2 µM.

The binders below were run against T6, human FcγRIIIaV extracellular domain, His-tagged (human, UniProt P08637 17-208) (assay: SPR (Biacore), 25C, FcgR bound per antibody captured).
T6 construct: also called human FcgRIIIaV
T6 sequence (P08637 17-208 F176V): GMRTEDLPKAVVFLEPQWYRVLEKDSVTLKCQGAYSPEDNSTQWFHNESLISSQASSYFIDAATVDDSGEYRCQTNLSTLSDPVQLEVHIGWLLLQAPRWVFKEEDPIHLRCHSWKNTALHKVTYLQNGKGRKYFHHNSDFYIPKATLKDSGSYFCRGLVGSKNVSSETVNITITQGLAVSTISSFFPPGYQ
For B11, the “Binding to human FcgRs (parent B3 = 100)” value was 32.
In the case of B12, the “Binding to human FcgRs (parent B3 = 100)” value is reported as 86.

Biological target: T3, human FcγRIIaR extracellular domain, …
Assay: as above
For B11, the “Binding to human FcgRs (parent B3 = 100)” value was 48.
For B12, the “Binding to human FcgRs (parent B3 = 100)” value was 127.

What follows are binders tested against T4, human FcγRIIaH extracellular domain, … in the same assay as above.
For B11, the “Binding to human FcgRs (parent B3 = 100)” value was 95.
For B12, the “Binding to human FcgRs (parent B3 = 100)” value was 121.

These binders were tested against T7, cynomolgus monkey FcγRIIIaS extracellular domain with C-terminal His-tag (cynomolgus monkey, UniProt A3RFZ7 21-206 (rhesus entry)) (assay: SPR Biacore, antibody captured, FcgR analyte).
T7 construct: also called cyno FcgRIIIaS; cynoFcγRIIIaS; not shown: His-tag added to C-terminus
Method: as §1
Target sequence in this assay (A3RFZ7 21-206): as the sequence (A3RFZ7 21-206) above
For B13, the “KD fold (SG1 = 1)” value was 0.11 fold.
With B14 the “KD fold (SG1 = 1)” value was 0.14 fold and the Kd was 2.5 µM.
For B15, the “KD fold (SG1 = 1)” value was 0.09 fold.
For B16, the “KD fold (SG1 = 1)” value was 0.09 fold.
